# Experiments:
# human complement C3b [1] = molecular target: human complement C3b (UniProt P01024); assay: ELISA; conditions: C3b-coated wells, 50 nM Fg detected with peroxidase-conjugated anti-Fg antibody, read off a plot
# human complement C3b [2] = molecular target: human complement C3b (UniProt P01024); assay: flow cytometry on bacteria; conditions: Alexa488-labeled Fg 60 µg/ml; Efb (mutants) 0.5 µM; serum-opsonized S. aureus; buffer control est. 65 MFI; parent: est. 1300; read off a plot
# human fibrinogen (human) = human fibrinogen (human) (UniProt P02671)
# Chain of UniProt P02671 (P02671 36-866, chain 1 of 3): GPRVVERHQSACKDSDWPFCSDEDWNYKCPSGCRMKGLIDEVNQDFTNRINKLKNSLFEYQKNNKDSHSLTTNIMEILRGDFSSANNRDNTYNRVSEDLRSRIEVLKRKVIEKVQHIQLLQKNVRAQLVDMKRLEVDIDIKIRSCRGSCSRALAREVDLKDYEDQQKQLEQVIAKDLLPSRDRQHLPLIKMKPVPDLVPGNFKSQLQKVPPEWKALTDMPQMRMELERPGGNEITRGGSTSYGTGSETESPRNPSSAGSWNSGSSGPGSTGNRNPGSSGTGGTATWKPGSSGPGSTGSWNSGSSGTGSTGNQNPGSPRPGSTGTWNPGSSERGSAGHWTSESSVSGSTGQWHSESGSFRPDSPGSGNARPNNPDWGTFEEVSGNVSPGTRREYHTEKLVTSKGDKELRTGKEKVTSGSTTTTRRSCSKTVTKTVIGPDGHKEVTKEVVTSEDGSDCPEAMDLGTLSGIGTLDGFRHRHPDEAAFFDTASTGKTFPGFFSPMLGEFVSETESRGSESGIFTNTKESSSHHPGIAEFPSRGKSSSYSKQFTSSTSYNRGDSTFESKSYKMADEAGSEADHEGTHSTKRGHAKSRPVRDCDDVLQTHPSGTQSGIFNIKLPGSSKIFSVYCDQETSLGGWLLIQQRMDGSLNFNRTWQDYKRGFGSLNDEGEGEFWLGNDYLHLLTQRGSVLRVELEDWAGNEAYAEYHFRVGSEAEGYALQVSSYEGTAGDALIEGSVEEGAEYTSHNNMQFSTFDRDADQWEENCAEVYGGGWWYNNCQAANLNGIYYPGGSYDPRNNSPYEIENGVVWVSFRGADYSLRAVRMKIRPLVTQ
# Chain of UniProt P02671 (P02675 45-491, chain 2 of 3, further chain): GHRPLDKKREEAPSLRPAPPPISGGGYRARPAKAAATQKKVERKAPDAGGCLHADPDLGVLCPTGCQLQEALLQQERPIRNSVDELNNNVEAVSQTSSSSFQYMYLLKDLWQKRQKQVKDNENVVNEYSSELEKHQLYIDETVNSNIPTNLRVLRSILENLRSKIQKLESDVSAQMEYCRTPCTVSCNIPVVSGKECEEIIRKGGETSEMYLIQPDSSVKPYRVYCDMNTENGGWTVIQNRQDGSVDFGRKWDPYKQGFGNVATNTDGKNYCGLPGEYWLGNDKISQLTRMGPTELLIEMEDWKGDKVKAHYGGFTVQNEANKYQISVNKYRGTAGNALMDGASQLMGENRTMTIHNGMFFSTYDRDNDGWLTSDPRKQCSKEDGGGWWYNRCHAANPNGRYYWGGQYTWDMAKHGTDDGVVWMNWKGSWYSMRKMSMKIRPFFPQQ
# Chain of UniProt P02671 (P02679 27-453, chain 3 of 3, further chain): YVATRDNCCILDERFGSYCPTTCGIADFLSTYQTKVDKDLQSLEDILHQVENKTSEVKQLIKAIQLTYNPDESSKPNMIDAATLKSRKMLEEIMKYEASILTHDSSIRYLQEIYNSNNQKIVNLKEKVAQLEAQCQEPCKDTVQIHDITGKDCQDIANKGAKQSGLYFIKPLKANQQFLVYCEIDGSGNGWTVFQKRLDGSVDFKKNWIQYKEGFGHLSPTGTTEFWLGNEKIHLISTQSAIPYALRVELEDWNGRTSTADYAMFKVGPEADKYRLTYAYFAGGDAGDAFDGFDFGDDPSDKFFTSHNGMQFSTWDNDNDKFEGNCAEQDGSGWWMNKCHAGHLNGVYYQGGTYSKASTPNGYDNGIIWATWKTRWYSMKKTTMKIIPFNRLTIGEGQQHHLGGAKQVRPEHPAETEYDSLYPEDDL
Substance,"response (human complement C3b [1]; Efb about 6 nM (fourth point, read from the x axis), parent: est. 0.93)","response (human complement C3b [1]; Efb about 25 nM (highest point, read from the x axis), parent: est. 0.91)",response (human complement C3b [2]),"inhibition of phagocytosis of fluorescent S. aureus by human neutrophils in 2.5% human plasma, dose response of Efb (needs the interaction with C3b as well) (human fibrinogen (human))"
"GST-tagged full-length Extracellular fibrinogen binding protein (Efb), wild type (from UniProt A6QG59) R131E; N138E",0.2 OD450,0.23 OD450,180 MFI,–
"His-tagged Efb, wild type (from UniProt A6QG59 30-165) (natural protein)",–,–,–,0.08 µM
